Data as given in the Human Domainome abundance scans (Beltran et al. 2025).
± gives the uncertainty stated by the source.

B1: WW domain-binding protein 4, residues 8 to 43; numbered along this chain, O75554 (parent)
chain: QPKKFCDYCKCWIADNRPSVEFHERGKNHKENVAKR
B2: Gamma-crystallin C, residues 4 to 79; numbered along this chain, P07315 (parent)
chain: ITFYEDRAFQGRSYETTTDCPNLQPYFSRCNSIRVESGCWMLYERPNYQGQQYLLRRGEYPDYQQWMGLSDSIRSC

Variants of: B1
Experiment: abundance fitness (aPCA) (normalised: wild type 0, dead -1); higher = more abundant; growth selection in yeast, the domain comes from the species named
Settings: Homo sapiens

| Variant | abundance fitness |
| --- | --- |
| SPKKFCDYCKCWIADNRPSVEFHERGKNHKENVAKR [Q1S] | -0.651 ± 0.11 |
| TPKKFCDYCKCWIADNRPSVEFHERGKNHKENVAKR [Q1T] | -0.509 ± 0.12 |
| HPKKFCDYCKCWIADNRPSVEFHERGKNHKENVAKR [Q1H] | -0.275 ± 0.089 |
| MPKKFCDYCKCWIADNRPSVEFHERGKNHKENVAKR [Q1M] | -0.242 ± 0.075 |
| RPKKFCDYCKCWIADNRPSVEFHERGKNHKENVAKR [Q1R] | -0.979 ± 0.094 |
| YPKKFCDYCKCWIADNRPSVEFHERGKNHKENVAKR [Q1Y] | -0.422 ± 0.41 |
| KPKKFCDYCKCWIADNRPSVEFHERGKNHKENVAKR [Q1K] | -0.879 ± 0.15 |
| IPKKFCDYCKCWIADNRPSVEFHERGKNHKENVAKR [Q1I] | 0.404 ± 0.17 |
| LPKKFCDYCKCWIADNRPSVEFHERGKNHKENVAKR [Q1L] | -0.654 ± 0.081 |
| CPKKFCDYCKCWIADNRPSVEFHERGKNHKENVAKR [Q1C] | -1.36 ± 0.41 |
| EPKKFCDYCKCWIADNRPSVEFHERGKNHKENVAKR [Q1E] | -0.941 ± 0.12 |
| GPKKFCDYCKCWIADNRPSVEFHERGKNHKENVAKR [Q1G] | -0.548 ± 0.099 |
| APKKFCDYCKCWIADNRPSVEFHERGKNHKENVAKR [Q1A] | -0.931 ± 0.23 |
| VPKKFCDYCKCWIADNRPSVEFHERGKNHKENVAKR [Q1V] | -0.257 ± 0.094 |
| WPKKFCDYCKCWIADNRPSVEFHERGKNHKENVAKR [Q1W] | -1.47 ± 0.32 |
| QCKKFCDYCKCWIADNRPSVEFHERGKNHKENVAKR [P2C] | -0.839 ± 0.18 |
| QAKKFCDYCKCWIADNRPSVEFHERGKNHKENVAKR [P2A] | 0.007 ± 0.075 |

Variants of: B2
Experiment: as above
Settings: Homo sapiens

| Variant | abundance fitness |
| --- | --- |
| ITFYEDRAFQGRSYETTTDCPNLQPYFSRCNSIRVESGCWMLYERPNYQGQQYLLRRGEYPDYQQWMGLSDSKRSC [I73K] | -0.801 ± 0.25 |
| ITFYEDRAFQGRSYETTTDCPNLQPYFSRCNSIRVESGCWMLYERPNYQGQQYLLRRGEYPDYQQWMGLSDSSRSC [I73S] | -0.39 ± 0.084 |
| ITFYEDRAFQGRSYETTTDCPNLQPYFSRCNSIRVESGCWMLYERPNYQGQQYLLRRGEYPDYQQWMGLSDSVRSC [I73V] | 0.085 ± 0.089 |
| ITFYEDRAFQGRSYETTTDCPNLQPYFSRCNSIRVESGCWMLYERPNYQGQQYLLRRGEYPDYQQWMGLSDSTRSC [I73T] | 0.053 ± 0.1 |
| ITFYEDRAFQGRSYETTTDCPNLQPYFSRCNSIRVESGCWMLYERPNYQGQQYLLRRGEYPDYQQWMGLSDSWRSC [I73W] | 0.124 ± 0.12 |
| ITFYEDRAFQGRSYETTTDCPNLQPYFSRCNSIRVESGCWMLYERPNYQGQQYLLRRGEYPDYQQWMGLSDSLRSC [I73L] | 0.025 ± 0.077 |
| ITFYEDRAFQGRSYETTTDCPNLQPYFSRCNSIRVESGCWMLYERPNYQGQQYLLRRGEYPDYQQWMGLSDSQRSC [I73Q] | -0.798 ± 0.26 |
| ITFYEDRAFQGRSYETTTDCPNLQPYFSRCNSIRVESGCWMLYERPNYQGQQYLLRRGEYPDYQQWMGLSDSRRSC [I73R] | -0.854 ± 0.1 |
| ITFYEDRAFQGRSYETTTDCPNLQPYFSRCNSIRVESGCWMLYERPNYQGQQYLLRRGEYPDYQQWMGLSDSMRSC [I73M] | 0.106 ± 0.094 |
| ITFYEDRAFQGRSYETTTDCPNLQPYFSRCNSIRVESGCWMLYERPNYQGQQYLLRRGEYPDYQQWMGLSDSHRSC [I73H] | -0.693 ± 0.29 |
| ITFYEDRAFQGRSYETTTDCPNLQPYFSRCNSIRVESGCWMLYERPNYQGQQYLLRRGEYPDYQQWMGLSDSPRSC [I73P] | 0.071 ± 0.081 |
| ITFYEDRAFQGRSYETTTDCPNLQPYFSRCNSIRVESGCWMLYERPNYQGQQYLLRRGEYPDYQQWMGLSDSYRSC [I73Y] | -0.207 ± 0.3 |
| ITFYEDRAFQGRSYETTTDCPNLQPYFSRCNSIRVESGCWMLYERPNYQGQQYLLRRGEYPDYQQWMGLSDSIRDC [S75D] | -0.836 ± 0.41 |
| ITFYEDRAFQGRSYETTTDCPNLQPYFSRCNSIRVESGCWMLYERPNYQGQQYLLRRGEYPDYQQWMGLSDSIRCC [S75C] | 0.044 ± 0.12 |
| ITFYEDRAFQGRSYETTTDCPNLQPYFSRCNSIRVESGCWMLYERPNYQGQQYLLRRGEYPDYQQWMGLSDSIRIC [S75I] | -0.186 ± 0.15 |
| ITFYEDRAFQGRSYETTTDCPNLQPYFSRCNSIRVESGCWMLYERPNYQGQQYLLRRGEYPDYQQWMGLSDSIRYC [S75Y] | -0.599 ± 0.25 |
| ITFYEDRAFQGRSYETTTDCPNLQPYFSRCNSIRVESGCWMLYERPNYQGQQYLLRRGEYPDYQQWMGLSDSIRWC [S75W] | -0.875 ± 0.24 |
| ITFYEDRAFQGRSYETTTDCPNLQPYFSRCNSIRVESGCWMLYERPNYQGQQYLLRRGEYPDYQQWMGLSDSIRHC [S75H] | -0.88 ± 0.29 |
| ITFYEDRAFQGRSYETTTDCPNLQPYFSRCNSIRVESGCWMLYERPNYQGQQYLLRRGEYPDYQQWMGLSDSIRRC [S75R] | -0.479 ± 0.069 |
| ITFYEDRAFQGRSYETTTDCPNLQPYFSRCNSIRVESGCWMLYERPNYQGQQYLLRRGEYPDYQQWMGLSDSIRMC [S75M] | -0.675 ± 0.13 |
| ITFYEDRAFQGRSYETTTDCPNLQPYFSRCNSIRVESGCWMLYERPNYQGQQYLLRRGEYPDYQQWMGLSDSIRFC [S75F] | -0.979 ± 0.26 |
| ITFYEDRAFQGRSYETTTDCPNLQPYFSRCNSIRVESGCWMLYERPNYQGQQYLLRRGEYPDYQQWMGLSDSIRPC [S75P] | -0.66 ± 0.12 |
| ITFYEDRAFQGRSYETTTDCPNLQPYFSRCNSIRVESGCWMLYERPNYQGQQYLLRRGEYPDYQQWMGLSDSIRGC [S75G] | -0.069 ± 0.062 |
